± gives the standard deviation of the averaged measurements.
Assays:
MCF7 = assay: percentage of EdU-negative (G0-arrested) nuclei per well, 72 h; higher = more G0 arrest; conditions: reference: sequence is the full UniProt precursor, the tested protein was the secreted form or ectodomain
hTERT-HMEC = assay: as above; conditions: reference: sequence is the full UniProt precursor, the tested protein was the secreted form or ectodomain
[1] = protein concentration 0.03125 µM
[2] = protein concentration 0.3125 µM
[3] = protein concentration 0.0102857 µM
[4] = protein concentration 0.102857 µM
[5] = protein concentration 0.01725 µM
[6] = protein concentration 0.1725 µM
[7] = protein concentration 0.0225 µM
[8] = protein concentration 0.0125 µM
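Further: secreted proteins added to cultured cells, EdU pulse at the end, nuclei found by Hoechst imaging, EdU status from nuclear versus surrounding ring intensity ratio, PBS as neutral control.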

Sequence: MVGPAPRRRLRPLAALALVLALAPGLPTARAGQTPRPAERGPPVRLFTEEELARYGGEEEDQPIYLAVKGVVFDVTSGKEFYGRGAPYNALTGKDSTRGVAKMSLDPADLTHDTTGLTAKELEALDEVFTKVYKAKYPIVGYTARRILNEDGSPNLDFKPEDQPHFDIKDEF [Q9UMX5]
- percentage of EdU-negative (MCF7; [1]): 22.8 ± 0.65%
- percentage of EdU-negative (MCF7; [2]): 23.5 ± 1.4%
- percentage of EdU-negative (hTERT-HMEC; [1]): 4.98 ± 0.59%
- percentage of EdU-negative (hTERT-HMEC; [2]): 6.64 ± 2.3%

Sequence: MADKVRRQRPRRRVCWALVAVLLADLLALSDTLAVMSVDLGSESMKVAIVKPGVPMEIVLNKESRRKTPVIVTLKENERFFGDSAASMAIKNPKATLRYFQHLLGKQADNPHVALYQARFPEHELTFDPQRQTVHFQISSQLQFSPEEVLGMVLNYSRSLAEDFAEQPIKDAVITVPVFFNQAERRAVLQAARMAGLKVLQLINDNTATALSYGVFRRKDINTTAQNIMFYDMGSGSTVCTIVTYQMVKTKEAGMQPQLQIRGVGFDRTLGGLEMELRLRERLAGLFNEQRKGQRAKDVRENPRAMAKLLREANRLKTVLSANADHMAQIEGLMDDVDFKAKVTRVEFEELCADLFERVPGPVQQALQSAEMSLDEIEQVILVGGATRVPRVQEVLLKAVGKEELGKNINADEAAAMGAVYQAAALSKAFKVKPFVVRDAVVYPILVEFTREVEEEPGIHSLKHNKRVLFSRMGPYPQRKVITFNRYSHDFNFHINYGDLGFLGPEDLRVFGSQNLTTVKLKGVGDSFKKYPDYESKGIKAHFNLDESGVLSLDRVESVFETLVEDSAEEESTLTKLGNTISSLFGGGTTPDAKENGTDTVQEEEESPAEGSKDEPGEQVELKEEAEAPVEDGSQPPPPEPKGDATPEGEKATEKENGDKSEAQKPSEKAEAGPEGVAPAPEGEKKQKPARKRRMVEEIGVELVVLDLPDLPEDKLAQSVQKLQDLTLRDLEKQEREKAANSLEAFIFETQDKLYQPEYQEVSTEEQREEISGKLSAASTWLEDEGVGATTVMLKEKLAELRKLCQGLFFRVEERKKWPERLSALDNLLNHSSMFLKGARLIPEMDQIFTEVEMTTLEKVINETWAWKNATLAEQAKLPATEKPVLLSKDIEAKMMALDREVQYLLNKAKFTKPRPRPKDKNGTRAEPPLNASASDQGEKVIPPAGQTEDAEPISEPEKVETGSEPGDTEPLELGGPGAEPEQKEQSTGQKRPLKNDEL [Q9Y4L1]
- percentage of EdU-negative (MCF7; [3]): 23.6 ± 1.2%
- percentage of EdU-negative (MCF7; [4]): 30.4 ± 1.7%
- percentage of EdU-negative (hTERT-HMEC; [3]): 6.45 ± 1.3%
- percentage of EdU-negative (hTERT-HMEC; [4]): 35.3 ± 5.6%

Sequence: MESRVLLRTFCLIFGLGAVWGLGVDPSLQIDVLTELELGESTTGVRQVPGLHNGTKAFLFQDTPRSIKASTATAEQFFQKLRNKHEFTILVTLKQTHLNSGVILSIHHLDHRYLELESSGHRNEVRLHYRSGSHRPHTEVFPYILADDKWHKLSLAISASHLILHIDCNKIYERVVEKPSTDLPLGTTFWLGQRNNAHGYFKGIMQDVQLLVMPQGFIAQCPDLNRTCPTCNDFHGLVQKIMELQDILAKTSAKLSRAEQRMNRLDQCYCERTCTMKGTTYREFESWIDGCKNCTCLNGTIQCETLICPNPDCPLKSALAYVDGKCCKECKSICQFQGRTYFEGERNTVYSSSGVCVLYECKDQTMKLVESSGCPALDCPESHQITLSHSCCKVCKGYDFCSERHNCMENSICRNLNDRAVCSCRDGFRALREDNAYCEDIDECAEGRHYCRENTMCVNTPGSFMCICKTGYIRIDDYSCTEHDECITNQHNCDENALCFNTVGGHNCVCKPGYTGNGTTCKAFCKDGCRNGGACIAANVCACPQGFTGPSCETDIDECSDGFVQCDSRANCINLPGWYHCECRDGYHDNGMFSPSGESCEDIDECGTGRHSCANDTICFNLDGGYDCRCPHGKNCTGDCIHDGKVKHNGQIWVLENDRCSVCSCQNGFVMCRRMVCDCENPTVDLFCCPECDPRLSSQCLHQNGETLYNSGDTWVQNCQQCRCLQGEVDCWPLPCPDVECEFSILPENECCPRCVTDPCQADTIRNDITKTCLDEMNVVRFTGSSWIKHGTECTLCQCKNGHICCSVDPQCLQEL
- percentage of EdU-negative (MCF7; [5]): 24.4 ± 2.6%
- percentage of EdU-negative (MCF7; [6]): 28.9 ± 0.7%
- percentage of EdU-negative (hTERT-HMEC; [5]): 5.41 ± 0.14%
- percentage of EdU-negative (hTERT-HMEC; [6]): 12.7 ± 0.33%

Sequence: MAGGRHRRVVGTLHLLLLVAALPWASRGVSPSASAWPEEKNYHQPAILNSSALRQIAEGTSISEMWQNDLQPLLIERYPGSPGSYAARQHIMQRIQRLQADWVLEIDTFLSQTPYGYRSFSNIISTLNPTAKRHLVLACHYDSKYFSHWNNRVFVGATDSAVPCAMMLELARALDKKLLSLKTVSDSKPDLSLQLIFFDGEEAFLHWSPQDSLYGSRHLAAKMASTPHPPGARGTSQLHGMDLLVLLDLIGAPNPTFPNFFPNSARWFERLQAIEHELHELGLLKDHSLEGRYFQNYSYGGVIQDDHIPFLRRGVPVLHLIPSPFPEVWHTMDDNEENLDESTIDNLNKILQVFVLEYLHL
- percentage of EdU-negative (MCF7; [7]): 25.8 ± 0.78%
- percentage of EdU-negative (MCF7; protein concentration 0.225 µM): 29.91 ± 0.092%
- percentage of EdU-negative (hTERT-HMEC; [7]): 5.21 ± 0.26%
- percentage of EdU-negative (hTERT-HMEC; protein concentration 0.225 µM): 4.97 ± 1.1%

Sequence: MDMAWQMMQLLLLALVTAAGSAQPRSARARTDLLNVCMNAKHHKTQPSPEDELYGQCSPWKKNACCTASTSQELHKDTSRLYNFNWDHCGKMEPTCKRHFIQDSCLYECSPNLGPWIRQVNQSWRKERILNVPLCKEDCERWWEDCRTSYTCKSNWHKGWNWTSGINECPAGALCSTFESYFPTPAALCEGLWSHSFKVSNYSRGSGRCIQMWFDSAQGNPNEEVAKFYAAAMNAGAPSRGIIDS [A0A087WXL1]
- percentage of EdU-negative (MCF7; [7]): 25.4 ± 0.5%
- percentage of EdU-negative (MCF7; protein concentration 0.225 µM): 24 ± 1.3%
- percentage of EdU-negative (hTERT-HMEC; [7]): 5.28 ± 0.77%
- percentage of EdU-negative (hTERT-HMEC; protein concentration 0.225 µM): 4.93 ± 0.46%

Sequence: MPRSCCSRSGALLLALLLQASMEVRGWCLESSQCQDLTTESNLLECIRACKPDLSAETPMFPGNGDEQPLTENPRKYVMGHFRWDRFGRRNSSSSGSSGAGQKREDVSAGEDCGPLPEGGPEPRSDGAKPGPREGKRSYSMEHFRWGKPVGKKRRPVKVYPNGAEDESAEAFPLEFKRELTGQRLREGDGPDGPADDGAGAQADLEHSLLVAAEKKDEGPYRMEHFRWGSPPKDKRYGGFMTSEKSQTPLVTLFKNAIIKNAYKKGE
- percentage of EdU-negative (MCF7; [8]): 24.3 ± 6.1%
- percentage of EdU-negative (MCF7; protein concentration 0.125 µM): 24.787 ± 0.0019%
- percentage of EdU-negative (hTERT-HMEC; [8]): 4.65 ± 0.64%
- percentage of EdU-negative (hTERT-HMEC; protein concentration 0.125 µM): 8.66 ± 0.81%
